Measured values: patent publication US20210032299A1 (Eli Lilly, published 2021)
Starred links: 1 amine or outer side, 2 acyl side, 3 side chain; linkers in the order of their positions; H or OH if unused. Non-standard residues stand in square brackets, D forms with d. Groups on a side chain read outwards from the residue. No end group written: not given here. *: point of attachment. C20 diacid = O=C(O)CCCCCCCCCCCCCCCCCCC(=O)*; C18 diacid = O=C(O)CCCCCCCCCCCCCCCCC(=O)*; γGlu = O=C(O)[C@H](CCC(=O)[*:2])N[*:1]; αMeF = C[C@](N)(Cc1ccccc1)C(=O)O; 4Pal = N[C@@H](Cc1ccncc1)C(=O)O; αMeL = CC(C)C[C@](C)(N)C(=O)O; AEEA = NCCOCCOCC(=O)O; Aib = CC(C)(N)C(=O)O

T1: human glucose-dependent insulinotropic peptide receptor (human, UniProt P48546 22-466)
T1 sequence (looked up): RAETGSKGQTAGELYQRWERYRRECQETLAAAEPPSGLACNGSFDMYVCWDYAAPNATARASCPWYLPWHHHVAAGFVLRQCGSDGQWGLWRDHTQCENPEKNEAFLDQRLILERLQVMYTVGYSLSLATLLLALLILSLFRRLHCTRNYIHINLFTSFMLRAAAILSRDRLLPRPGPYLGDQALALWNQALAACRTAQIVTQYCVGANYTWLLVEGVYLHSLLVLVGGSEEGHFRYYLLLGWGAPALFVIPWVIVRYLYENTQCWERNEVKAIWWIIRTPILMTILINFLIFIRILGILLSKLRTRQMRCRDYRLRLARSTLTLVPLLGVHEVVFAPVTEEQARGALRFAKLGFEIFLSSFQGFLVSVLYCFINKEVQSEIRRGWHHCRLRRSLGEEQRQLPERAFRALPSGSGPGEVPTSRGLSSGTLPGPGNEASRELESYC

B1: Example 47 (peptide)
peptide: Y[Aib]EGTFISDYSI[αMeL]LDKK([AEEA-AEEA-γGlu-C20 diacid])HQ[Aib]DFVE[4Pal]LLEGGPSSGAPPPS-NH2
modifications: N-terminus assumed
SMILES: CC[C@H](C)[C@H](NC(=O)[C@H](Cc1ccccc1)NC(=O)[C@@H](NC(=O)CNC(=O)[C@H](CCC(=O)O)NC(=O)C(C)(C)NC(=O)[C@@H](N)Cc1ccc(O)cc1)[C@@H](C)O)C(=O)N[C@@H](CO)C(=O)N[C@@H](CC(=O)O)C(=O)N[C@@H](Cc1ccc(O)cc1)C(=O)N[C@@H](CO)C(=O)N[C@H](C(=O)N[C@@](C)(CC(C)C)C(=O)N[C@@H](CC(C)C)C(=O)N[C@@H](CC(=O)O)C(=O)N[C@@H](CCCCN)C(=O)N[C@@H](CCCCNC(=O)COCCOCCNC(=O)COCCOCCNC(=O)CC[C@H](NC(=O)CCCCCCCCCCCCCCCCCCC(=O)O)C(=O)O)C(=O)N[C@@H](Cc1c[nH]cn1)C(=O)N[C@@H](CCC(N)=O)C(=O)NC(C)(C)C(=O)N[C@@H](CC(=O)O)C(=O)N[C@@H](Cc1ccccc1)C(=O)N[C@H](C(=O)N[C@@H](CCC(=O)O)C(=O)N[C@@H](Cc1ccncc1)C(=O)N[C@@H](CC(C)C)C(=O)N[C@@H](CC(C)C)C(=O)N[C@@H](CCC(=O)O)C(=O)NCC(=O)NCC(=O)N1CCC[C@H]1C(=O)N[C@@H](CO)C(=O)N[C@@H](CO)C(=O)NCC(=O)N[C@@H](C)C(=O)N1CCC[C@H]1C(=O)N1CCC[C@H]1C(=O)N1CCC[C@H]1C(=O)N[C@@H](CO)C(N)=O)C(C)C)[C@@H](C)CC
B2: Example 49 (peptide)
peptide: Y[Aib]EGTFISDYSI[αMeL]LDKK([AEEA-AEEA-γGlu-C18 diacid])HQ[Aib]DFVE[4Pal]LLAGGPSSGAPPPS-NH2
modifications: N-terminus assumed
SMILES: CC[C@H](C)[C@H](NC(=O)[C@H](Cc1ccccc1)NC(=O)[C@@H](NC(=O)CNC(=O)[C@H](CCC(=O)O)NC(=O)C(C)(C)NC(=O)[C@@H](N)Cc1ccc(O)cc1)[C@@H](C)O)C(=O)N[C@@H](CO)C(=O)N[C@@H](CC(=O)O)C(=O)N[C@@H](Cc1ccc(O)cc1)C(=O)N[C@@H](CO)C(=O)N[C@H](C(=O)N[C@@](C)(CC(C)C)C(=O)N[C@@H](CC(C)C)C(=O)N[C@@H](CC(=O)O)C(=O)N[C@@H](CCCCN)C(=O)N[C@@H](CCCCNC(=O)COCCOCCNC(=O)COCCOCCNC(=O)CC[C@H](NC(=O)CCCCCCCCCCCCCCCCC(=O)O)C(=O)O)C(=O)N[C@@H](Cc1c[nH]cn1)C(=O)N[C@@H](CCC(N)=O)C(=O)NC(C)(C)C(=O)N[C@@H](CC(=O)O)C(=O)N[C@@H](Cc1ccccc1)C(=O)N[C@H](C(=O)N[C@@H](CCC(=O)O)C(=O)N[C@@H](Cc1ccncc1)C(=O)N[C@@H](CC(C)C)C(=O)N[C@@H](CC(C)C)C(=O)N[C@@H](C)C(=O)NCC(=O)NCC(=O)N1CCC[C@H]1C(=O)N[C@@H](CO)C(=O)N[C@@H](CO)C(=O)NCC(=O)N[C@@H](C)C(=O)N1CCC[C@H]1C(=O)N1CCC[C@H]1C(=O)N1CCC[C@H]1C(=O)N[C@@H](CO)C(N)=O)C(C)C)[C@@H](C)CC
B3: Example 50 (peptide)
peptide: Y[Aib]EGT[αMeF]ISDYSI[αMeL]LDKK([AEEA-AEEA-γGlu-C20 diacid])HQ[Aib]DFVE[4Pal]LLAGGPSSGAPPPS-NH2
modifications: N-terminus assumed
SMILES: CC[C@H](C)[C@H](NC(=O)[C@H](CO)NC(=O)[C@H](Cc1ccc(O)cc1)NC(=O)[C@H](CC(=O)O)NC(=O)[C@H](CO)NC(=O)[C@@H](NC(=O)[C@](C)(Cc1ccccc1)NC(=O)[C@@H](NC(=O)CNC(=O)[C@H](CCC(=O)O)NC(=O)C(C)(C)NC(=O)[C@@H](N)Cc1ccc(O)cc1)[C@@H](C)O)[C@@H](C)CC)C(=O)N[C@@](C)(CC(C)C)C(=O)N[C@@H](CC(C)C)C(=O)N[C@@H](CC(=O)O)C(=O)N[C@@H](CCCCN)C(=O)N[C@@H](CCCCNC(=O)COCCOCCNC(=O)COCCOCCNC(=O)CC[C@H](NC(=O)CCCCCCCCCCCCCCCCCCC(=O)O)C(=O)O)C(=O)N[C@@H](Cc1c[nH]cn1)C(=O)N[C@@H](CCC(N)=O)C(=O)NC(C)(C)C(=O)N[C@@H](CC(=O)O)C(=O)N[C@@H](Cc1ccccc1)C(=O)N[C@H](C(=O)N[C@@H](CCC(=O)O)C(=O)N[C@@H](Cc1ccncc1)C(=O)N[C@@H](CC(C)C)C(=O)N[C@@H](CC(C)C)C(=O)N[C@@H](C)C(=O)NCC(=O)NCC(=O)N1CCC[C@H]1C(=O)N[C@@H](CO)C(=O)N[C@@H](CO)C(=O)NCC(=O)N[C@@H](C)C(=O)N1CCC[C@H]1C(=O)N1CCC[C@H]1C(=O)N1CCC[C@H]1C(=O)N[C@@H](CO)C(N)=O)C(C)C
B4: Example 48 (peptide)
peptide: Y[Aib]EGTFISDYSI[αMeL]LDKK([AEEA-AEEA-γGlu-C20 diacid])HQ[Aib]DFVE[4Pal]LLAGGPSSGAPPPS-NH2
modifications: N-terminus assumed
SMILES: CC[C@H](C)[C@H](NC(=O)[C@H](Cc1ccccc1)NC(=O)[C@@H](NC(=O)CNC(=O)[C@H](CCC(=O)O)NC(=O)C(C)(C)NC(=O)[C@@H](N)Cc1ccc(O)cc1)[C@@H](C)O)C(=O)N[C@@H](CO)C(=O)N[C@@H](CC(=O)O)C(=O)N[C@@H](Cc1ccc(O)cc1)C(=O)N[C@@H](CO)C(=O)N[C@H](C(=O)N[C@@](C)(CC(C)C)C(=O)N[C@@H](CC(C)C)C(=O)N[C@@H](CC(=O)O)C(=O)N[C@@H](CCCCN)C(=O)N[C@@H](CCCCNC(=O)COCCOCCNC(=O)COCCOCCNC(=O)CC[C@H](NC(=O)CCCCCCCCCCCCCCCCCCC(=O)O)C(=O)O)C(=O)N[C@@H](Cc1c[nH]cn1)C(=O)N[C@@H](CCC(N)=O)C(=O)NC(C)(C)C(=O)N[C@@H](CC(=O)O)C(=O)N[C@@H](Cc1ccccc1)C(=O)N[C@H](C(=O)N[C@@H](CCC(=O)O)C(=O)N[C@@H](Cc1ccncc1)C(=O)N[C@@H](CC(C)C)C(=O)N[C@@H](CC(C)C)C(=O)N[C@@H](C)C(=O)NCC(=O)NCC(=O)N1CCC[C@H]1C(=O)N[C@@H](CO)C(=O)N[C@@H](CO)C(=O)NCC(=O)N[C@@H](C)C(=O)N1CCC[C@H]1C(=O)N1CCC[C@H]1C(=O)N1CCC[C@H]1C(=O)N[C@@H](CO)C(N)=O)C(C)C)[C@@H](C)CC
B5: Example 46 (peptide)
peptide: Y[Aib]EGTFISDYSI[αMeL]LDKK([AEEA-AEEA-γGlu-C20 diacid])HQ[Aib]DFVE[4Pal]LLEQGPSSGAPPPS-NH2
modifications: N-terminus assumed
SMILES: CC[C@H](C)[C@H](NC(=O)[C@H](Cc1ccccc1)NC(=O)[C@@H](NC(=O)CNC(=O)[C@H](CCC(=O)O)NC(=O)C(C)(C)NC(=O)[C@@H](N)Cc1ccc(O)cc1)[C@@H](C)O)C(=O)N[C@@H](CO)C(=O)N[C@@H](CC(=O)O)C(=O)N[C@@H](Cc1ccc(O)cc1)C(=O)N[C@@H](CO)C(=O)N[C@H](C(=O)N[C@@](C)(CC(C)C)C(=O)N[C@@H](CC(C)C)C(=O)N[C@@H](CC(=O)O)C(=O)N[C@@H](CCCCN)C(=O)N[C@@H](CCCCNC(=O)COCCOCCNC(=O)COCCOCCNC(=O)CC[C@H](NC(=O)CCCCCCCCCCCCCCCCCCC(=O)O)C(=O)O)C(=O)N[C@@H](Cc1c[nH]cn1)C(=O)N[C@@H](CCC(N)=O)C(=O)NC(C)(C)C(=O)N[C@@H](CC(=O)O)C(=O)N[C@@H](Cc1ccccc1)C(=O)N[C@H](C(=O)N[C@@H](CCC(=O)O)C(=O)N[C@@H](Cc1ccncc1)C(=O)N[C@@H](CC(C)C)C(=O)N[C@@H](CC(C)C)C(=O)N[C@@H](CCC(=O)O)C(=O)N[C@@H](CCC(N)=O)C(=O)NCC(=O)N1CCC[C@H]1C(=O)N[C@@H](CO)C(=O)N[C@@H](CO)C(=O)NCC(=O)N[C@@H](C)C(=O)N1CCC[C@H]1C(=O)N1CCC[C@H]1C(=O)N1CCC[C@H]1C(=O)N[C@@H](CO)C(N)=O)C(C)C)[C@@H](C)CC

What follows are binders tested against human glucagon receptor (human, UniProt P47871 26-477) (assay: cell-based or functional assay).
Chain of human glucagon receptor (P47871 26-477): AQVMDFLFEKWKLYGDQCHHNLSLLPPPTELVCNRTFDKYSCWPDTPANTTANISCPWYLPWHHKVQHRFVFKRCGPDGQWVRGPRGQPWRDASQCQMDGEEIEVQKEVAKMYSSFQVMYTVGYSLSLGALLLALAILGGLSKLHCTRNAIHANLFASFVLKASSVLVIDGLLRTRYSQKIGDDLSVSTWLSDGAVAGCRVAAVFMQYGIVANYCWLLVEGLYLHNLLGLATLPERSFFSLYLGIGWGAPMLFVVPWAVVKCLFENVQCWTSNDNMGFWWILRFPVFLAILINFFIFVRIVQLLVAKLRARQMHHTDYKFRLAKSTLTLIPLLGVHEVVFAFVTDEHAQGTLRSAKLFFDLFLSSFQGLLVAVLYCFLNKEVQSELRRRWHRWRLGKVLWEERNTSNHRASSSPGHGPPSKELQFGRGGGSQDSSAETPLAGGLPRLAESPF

Row | Binder | hGcgR cAMP Rel EC50 [nM]
1 | B1 | 757
2 | B2 | 2860
3 | B3 | 371
4 | B4 | 1360
5 | B5 | 863

What follows are binders tested against human GLP-1 receptor (human, UniProt P43220 24-463) (assay: cell-based or functional assay).

Row | Binder | hGLP1R cAMP Rel EC50 [nM]
6 | B1 | > 5000
7 | B2 | > 5000
8 | B3 | 41
9 | B4 | > 5000
10 | B5 | > 5000

Each binder was assayed against T1, human glucose-dependent insulinotropic … (assay: cell-based or functional assay).

Row | Binder | hGIPR cAMP Rel EC50 [nM]
11 | B1 | 0.0234
12 | B2 | 0.0156
13 | B3 | 0.0212
14 | B4 | 0.0166
15 | B5 | 0.0294
